Results from the RNAGym collection of RNA variant scans (doi:10.1093/molbev/msab373).

B1: Azoarcus group I ribozyme (parent)
chain: GUGCCUUGCGCCGGGAAACCACGCAAGGGAUGGUGUCAAAUUCGGCGAAACCUAAGCGCCCGCCCGGGCGUAUGGCAACGCCGAGCCAAGCUUCGGCGCCUGCGCCGAUGAAGGUGUAGAGACUAGACGGCACCCACCUAAGGCAAACGCUAUGGUGAAGGCAUAGUCCAGGGAGUGGCGAAAGUCACACAAACCGG

Variants of: B1
Test: reverse-splicing fitness (ratio to wild type); higher = more active; in vitro selection; Mg2+ level not given
In short: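 An in vitro group I ribozyme library with randomized positions was T7-transcribed and gel-purified. In triplicate, 10 pmol RNA in EPPS pH 7.5 was reacted with 50 pmoles of a 30-nt RNA substrate for 1 h at 37 °C across several added MgCl2 levels (1–48 mM), then stopped with EDTA. Products were reverse transcribed from a substrate-complementary primer, PCR-amplified and sequenced (HiSeq 4000). Fitness is a variant's read proportion after selection over that before, normalised to wild type.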

In order of rising reverse-splicing fitness:
1. GUGCCUUGCGCCGGGAAACCACGCAAGGGAUGGUGUCAAAUUCGGCGAAACCUAAGCGCCCGCCCGGGCGUAUGGCAACGCGGAGCCAAGCUUCGGCGCCUGCGCCGAUGGAGGUGUAGUGACUAGACGGCACCCACCUAAGGCCAACGAUAUGGUGAAGGCAUAGUCAAGGGAGGGGCGAAAGUCACACAAACCGG [C82G A111G A120U A145C C150A C169A U176G]  0.00204
2. GUGCCUUGCGCCGGGAAACCACGCAAGGGAUGGUGUCAAAUUCGGCGAAACCUAAGCGCCCGCCCGGGCGUAUGGCAACGCGGAGCCAAGCUUCGGCGCCUGCGCCGAUGGAGGUGUAGUGACUAGACGGCACCCACCUAAGGCCAACGAUAUGGUGAAGGCAUAGUCAAGGGAGAGGCGAAAGUCACACAAACCGG [C82G A111G A120U A145C C150A C169A U176A]  0.00209
3. GUGCCUUGCGCCGGGAAACCACGCAAGGGAUGGUGUCAAAUUCGGCGAAACCUAAGCGCCCGCCCGGGCGUAUGGCAACGCGGAGCCAAGCUUCGGCGCCUGCGCCGAUGGAGGUGUAGUGACUAGACGGCACCCACCUAAGGCCAACGAUAUGGUGAAGGCAUAGUCAAGGGAGCGGCGAAAGUCACACAAACCGG [C82G A111G A120U A145C C150A C169A U176C]  0.00213
4. GUGCCUUGCGCCGGGAAACCACGCAAGGGAUGGUGUCAAAUUCGGCGAAACCUAAGCGCCCGCCCGGGCGUAUGGCAACGCGGAGCCAAGCUUCGGCGCCUGCGCCGAUGGAGGUGUAGUGACUAGACGGCACCCACCUAAGGCCAACGAUAUGGUGAAGGCAUAGUCGAGGGAGCGGCGAAAGUCACACAAACCGG [C82G A111G A120U A145C C150A C169G U176C]  0.00215
5. GUGCCUUGCGCCGGGAAACCACGCAAGGGAUGGUGUCAAAUUCGGCGAAACCUAAGCGCCCGCCCGGGCGUAUGGCAACGCGGAGCCAAGCUUCGGCGCCUGCGCCGAUGGAGGUGUAGUGACUAGACGGCACCCACCUAAGGCCAACGAUAUGGUGAAGGCAUAGUCAAGGGAGUGGCGAAAGUCACACAAACCGG [C82G A111G A120U A145C C150A C169A]  0.00228
6. GUGCCUUGCGCCGGGAAACCACGCAAGGGAUGGUGUCAAAUUCGGCGAAACCUAAGCGCCCGCCCGGGCGUAUGGCAACGCGGAGCCAAGCUUCGGCGCCUGCGCCGAUGGAGGUGUAGUGACUAGACGGCACCCACCUAAGGCCAACGAUAUGGUGAAGGCAUAGUCGAGGGAGUGGCGAAAGUCACACAAACCGG [C82G A111G A120U A145C C150A C169G]  0.00251
7. GUGCCUUGCGCCGGGAAACCACGCAAGGGAUGGUGUCAAAUUCGGCGAAACCUAAGCGCCCGCCCGGGCGUAUGGCAACGCGGAGCCAAGCUUCGGCGCCUGCGCCGAUGGAGGUGUAGUGACUAGACGGCACCCACCUAAGGCCAACGAUAUGGUGAAGGCAUAGUCGAGGGAGAGGCGAAAGUCACACAAACCGG [C82G A111G A120U A145C C150A C169G U176A]  0.00277
8. GUGCCUUGCGCCGGGAAACCACGCAAGGGAUGGUGUCAAAUUCGGCGAAACCUAAGCGCCCGCCCGGGCGUAUGGCAACGCGGAGCCAAGCUUCGGCGCCUGCGCCGAUGGAGGUGUAGUGACUAGACGGCACCCACCUAAGGCCAACGAUAUGGUGAAGGCAUAGUCCAGGGAGUGGCGAAAGUCACACAAACCGG [C82G A111G A120U A145C C150A]  0.00572
9. GUGCCUUGCGCCGGGAAACCACGCAAGGGAUGGUGUCAAAUUCGGCGAAACCUAAGCGCCCGCCCGGGCGUAUGGCAACGCGGAGCCAAGCUUCGGCGCCUGCGCCGAUGGAGGUGUAGGGACUAGACGGCACCCACCUAAGGCAAACGCUAUGGUGAAGGCAUAGUCUAGGGAGGGGCGAAAGUCACACAAACCGG [C82G A111G A120G C169U U176G]  0.00595
10. GUGCCUUGCGCCGGGAAACCACGCAAGGGAUGGUGUCAAAUUCGGCGAAACCUAAGCGCCCGCCCGGGCGUAUGGCAACGCGGAGCCAAGCUUCGGCGCCUGCGCCGAUGGAGGUGUAGGGACUAGACGGCACCCACCUAAGGCAAACGCUAUGGUGAAGGCAUAGUCCAGGGAGGGGCGAAAGUCACACAAACCGG [C82G A111G A120G U176G]  0.00869
11. GUGCCUUGCGCCGGGAAACCACGCAAGGGAUGGUGUCAAAUUCGGCGAAACCUAAGCGCCCGCCCGGGCGUAUGGCAACGCGGAGCCAAGCUUCGGCGCCUGCGCCGAUGGAGGUGUAGGGACUAGACGGCACCCACCUAAGGCAAACGCUAUGGUGAAGGCAUAGUCCAGGGAGAGGCGAAAGUCACACAAACCGG [C82G A111G A120G U176A]  0.0172
12. GUGCCUUGCGCCGGGAAACCACGCAAGGGAUGGUGUCAAAUUCGGCGAAACCUAAGCGCCCGCCCGGGCGUAUGGCAACGCGGAGCCAAGCUUCGGCGCCUGCGCCGAUGGAGGUGUAGGGACUAGACGGCACCCACCUAAGGCAAACGCUAUGGUGAAGGCAUAGUCUAGGGAGCGGCGAAAGUCACACAAACCGG [C82G A111G A120G C169U U176C]  0.0198
13. GUGCCUUGCGCCGGGAAACCACGCAAGGGAUGGUGUCAAAUUCGGCGAAACCUAAGCGCCCGCCCGGGCGUAUGGCAACGCGGAGCCAAGCUUCGGCGCCUGCGCCGAUGGAGGUGUAGGGACUAGACGGCACCCACCUAAGGCAAACGCUAUGGUGAAGGCAUAGUCCAGGGAGCGGCGAAAGUCACACAAACCGG [C82G A111G A120G U176C]  0.0217
14. GUGCCUUGCGCCGGGAAACCACGCAAGGGAUGGUGUCAAAUUCGGCGAAACCUAAGCGCCCGCCCGGGCGUAUGGCAACGCGGAGCCAAGCUUCGGCGCCUGCGCCGAUGGAGGUGUAGUGACUAGACGGCACCCACCUAAGGCCAACGCUAUGGUGAAGGCAUAGUCCAGGGAGUGGCGAAAGUCACACAAACCGG [C82G A111G A120U A145C]  0.0668
15. GUGCCUUGCGCCGGGAAACCACGCAAGGGAUGGUGUCAAAUUCGGCGAAACCUAAGCGCCCGCCCGGGCGUAUGGCAACGCGGAGCCAAGCUUCGGCGCCUGCGCCGAUGGAGGUGUAGUGACUAGACGGCACCCACCUAAGGCAAACGCUAUGGUGAAGGCAUAGUCCAGGGAGUGGCGAAAGUCACACAAACCGG [C82G A111G A120U]  0.0726
